Experimental data reported in the supplement of paper PMC9732359.
± gives the uncertainty stated by the source.

Test: protein stability index of a GFP-peptide fusion (yeast GPS) (PSI 1-4); higher = more stable; sorted into four equal gates, so the index is relative within each strain
In short: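 Peptides tiling yeast proteins in 17-residue segments were fused downstream of GFP, with Cherry expressed from the same plasmid. As a pooled library in yeast, mid-log cultures grown in leucine-free medium were sorted into four equal gates by GFP/Cherry fluorescence ratio. Gate plasmids were PCR-amplified and Illumina-sequenced, and barcodes linked reads to strains. Each peptide received a protein stability index equal to the sum of each gate's read frequency times its gate number.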

Row | Sequence | protein stability index (doa10∆) | protein stability index (pdr5∆) | protein stability index (san1∆) | protein stability index (ubr1∆)
1 | TETFEKPQRTNTLRMKH [RPB2] | 3.05 ± 0.16 | 3.21 ± 0.14 | 3.16 ± 0.1 | 3.05 ± 0.12
2 | RYNAKAIGSGSEGAQAE [PUP2] | 3.24 ± 0.093 | 3.14 ± 0.093 | 3.36 ± 0.062 | 2.98 ± 0.075
3 | FTPEEEAAIRRENEWAE [SKP1] | 3.01 ± 0.11 | 3.25 ± 0.096 | 3.34 ± 0.063 | 3.3 ± 0.11
4 | LWKLLSTVKVSDLNLTD [YLR018C/POM34] | 2.35 ± 0.065 | 2.26 ± 0.044 | 2.3 ± 0.06 | 2.52 ± 0.039
5 | GHVGSVQISNIPDIGDL [PRP8] | 3.11 ± 0.067 | 2.95 ± 0.053 | 2.79 ± 0.058 | 3.03 ± 0.046
6 | TSDPVMHKQLAYILAAQ [RPN1] | 1.68 ± 0.15 | 2.52 ± 0.17 | – | 2.1 ± 0.11
7 | ALDYLIPPPMPKNQQYR [MED7] | 2.53 ± 0.08 | 2.58 ± 0.1 | 2.5 ± 0.096 | 2.6 ± 0.078
8 | EGRSFTKAIEDAKKEMK [YLR335W/NUP2] | 2.87 ± 0.066 | 2.7 ± 0.062 | 2.83 ± 0.06 | 2.59 ± 0.081
9 | RRLHDENLMVQRTCLMT [YCS4] | 2.43 ± 0.064 | 2.44 ± 0.057 | 2.45 ± 0.058 | 2.24 ± 0.047
10 | ELRRPGVDNLRRMGILK [RPO31] | 3.17 ± 0.079 | 2.98 ± 0.067 | 2.85 ± 0.06 | 3.08 ± 0.039
11 | RAASVGSLKLIELLCGL [NAS6] | 2.18 ± 0.075 | 2.13 ± 0.11 | 1.94 ± 0.11 | 1.83 ± 0.063
12 | YDTTPLLDTNSLEENAM [SKI6] | 3.08 ± 0.12 | 2.96 ± 0.082 | 2.97 ± 0.15 | 2.88 ± 0.078
13 | SNTTTQIQFTPLIKKIK [SMC3] | 2.2 ± 0.088 | 2.46 ± 0.045 | 2.71 ± 0.095 | 2.37 ± 0.07
14 | KNPRVTKEYLVQNLRSW [CSN9] | – | 3 ± 0.3 | 3.16 ± 0.11 | 3.36 ± 0.091
15 | GVVRYVMESGAKGCEVV [RPS3] | 1.29 ± 0.097 | 1.67 ± 0.1 | – | 1.34 ± 0.086
16 | INNPVNLTIHFGGEKGK [FAS1] | 2.97 ± 0.068 | 2.8 ± 0.097 | 2.8 ± 0.07 | 3.25 ± 0.069
17 | SIKDTQNVGQGKLQRKE [BRN1] | 1.96 ± 0.1 | 2.56 ± 0.081 | 1.94 ± 0.11 | 2.7 ± 0.049
18 | REDMPFTAEGIVPDLII [RPB2] | 2.49 ± 0.092 | 3.42 ± 0.15 | 3.1 ± 0.093 | 2.79 ± 0.11
19 | VYEYVIASTLGPSAMRL [RPC82] | 2.38 ± 0.21 | – | 1.6 ± 0.14 | 1.23 ± 0.097
20 | DGSKMLKRADYTAVDTA [RPN14] | 3.58 ± 0.12 | 3.32 ± 0.11 | 3.53 ± 0.036 | 3.26 ± 0.079
21 | GVWDVDNPLRQIPHFNN [BRR2] | 3.26 ± 0.077 | 3.24 ± 0.083 | 3.26 ± 0.065 | 3.13 ± 0.07
22 | TRAKIGGLNDPRLGSID [RPO21] | 3.03 ± 0.11 | 2.22 ± 0.077 | 2.58 ± 0.098 | 2.37 ± 0.083
23 | IECFKPGDIVRAQVLSL [CSL4] | 2.25 ± 0.15 | 2.04 ± 0.17 | 2.04 ± 0.2 | 2.39 ± 0.16
24 | SKQQAKGAFQKVAATSR [RPL24A] | 2.52 ± 0.043 | 2.99 ± 0.045 | 2.84 ± 0.036 | 2.8 ± 0.038
25 | VSGDLNPIHVSRHFASY [FAS1] | 2.51 ± 0.12 | 2.88 ± 0.068 | 2.78 ± 0.079 | 2.81 ± 0.062
26 | PDVLLSRVINVVRAASS [RRP6] | 1.26 ± 0.081 | 1.57 ± 0.066 | 1.44 ± 0.12 | 2.17 ± 0.13
27 | PRDVIKGKDFEITAKEV [FAS1] | 3.27 ± 0.095 | 3.41 ± 0.12 | 3.24 ± 0.07 | 3.36 ± 0.083
28 | PFNQGSKQDVEALIEFI [FAS2] | 3.08 ± 0.073 | 3.15 ± 0.076 | 3.01 ± 0.079 | 3.08 ± 0.061

Row | Sequence | protein stability index (doa10∆) | protein stability index (pdr5∆) | protein stability index (san1∆) | protein stability index (ubr1∆)
29 | SAGLDSAQQNLASSFVN [RPN1] | – | 2.96 ± 0.16 | 2.79 ± 0.17 | 3.2 ± 0.2
30 | SLLGGFDENIARDIISH [PCI8] | 2.83 ± 0.058 | 2.83 ± 0.048 | 2.71 ± 0.044 | 2.82 ± 0.046
31 | GMVKLNEYPVADAVTKD [REC8] | – | 2.87 ± 0.2 | 3.28 ± 0.043 | 3.36 ± 0.052
32 | DKYKLYPVRIPRLDTSK [YJR042W/NUP85] | 3.01 ± 0.075 | 2.9 ± 0.075 | 3.12 ± 0.059 | 3.24 ± 0.065
33 | VDYGGAEWSLVRIYSGL [SNU114] | – | – | – | 3.66 ± 0.18
34 | DENTSGKISKPRFLNKQ [PRP28] | – | 3.4 ± 0.23 | – | 3.16 ± 0.15
35 | PDDMVEINSVGNPGLPQ [ITC1] | 2.85 ± 0.086 | 3.26 ± 0.04 | 3.05 ± 0.072 | 3.09 ± 0.06
36 | FGKKRLDLAGPLLAQLF [RPB2] | 1.44 ± 0.19 | 1.79 ± 0.16 | 1.42 ± 0.15 | 1.4 ± 0.18
37 | AYELRTKSKEQLASQLV [RPL35A] | 3.02 ± 0.11 | 3.29 ± 0.091 | 2.93 ± 0.067 | 3.15 ± 0.13
38 | YAKDILQKEFLPHITQL [RPB2] | 1.76 ± 0.047 | 1.8 ± 0.04 | 1.4 ± 0.065 | 1.38 ± 0.031
39 | NGFMESAIVNEDGLLEG [SOH1] | – | – | 2.86 ± 0.23 | –
40 | RRGAHGSELSSKIRKIH [SIR3] | 2.32 ± 0.12 | 2.02 ± 0.087 | 2.57 ± 0.15 | 2.54 ± 0.063
41 | TEKEPVPAVVDDPLENM [SNF6] | 2.85 ± 0.073 | 3.12 ± 0.08 | 2.69 ± 0.082 | 2.88 ± 0.068
42 | EMGKLRERDITSLFHKF [RRI2] | 1.8 ± 0.071 | 1.83 ± 0.071 | 1.79 ± 0.17 | 1.95 ± 0.058
43 | SSLKESSPDTMKLTDLL [SNF12] | 3.09 ± 0.088 | 3.08 ± 0.083 | 2.71 ± 0.098 | 3.1 ± 0.076
44 | INDRNDRAIRKTCQWYS [DIS3] | 3.21 ± 0.087 | 3.09 ± 0.097 | 2.98 ± 0.068 | 3.25 ± 0.12
45 | TTVSNDLENSPLKTELE [SSN2] | 3.05 ± 0.13 | 3.16 ± 0.096 | 3.16 ± 0.072 | 3.19 ± 0.082
46 | YLNDLMITKRILEVGAL [RPN12] | 1.29 ± 0.16 | – | – | –
47 | RKASCIWLLSYIQYLGH [ECM29] | 1.88 ± 0.06 | 2.15 ± 0.046 | 2.32 ± 0.054 | 1.96 ± 0.036
48 | SHDASRSLASFEQTAFS [SIR4] | 2.86 ± 0.065 | 2.67 ± 0.049 | 2.81 ± 0.053 | 2.67 ± 0.067
49 | DLEEVKRFQVLYPCYFD [SEC65] | 2.28 ± 0.14 | 2.75 ± 0.088 | 2.42 ± 0.25 | 2.34 ± 0.12
50 | HNHDTGCDENDSTVNKS [YDL088C/ASM4] | 3.2 ± 0.09 | 3.2 ± 0.079 | 3.3 ± 0.057 | 3.05 ± 0.068
51 | MHSYFIFKDLVTVFLFM [COB] | 1.47 ± 0.04 | 1.32 ± 0.037 | 1.36 ± 0.056 | 1.34 ± 0.025
52 | FLARVIKEKFDEFIKTH [IRR1] | 2.79 ± 0.081 | 2.83 ± 0.08 | 2.8 ± 0.059 | 2.88 ± 0.074
53 | GQQKIILSKKWGFTNLD [RPL10] | 2.68 ± 0.22 | – | – | 2.29 ± 0.21
54 | MDRTSLRKQYSAIDEEI [SMC3] | 2.28 ± 0.21 | – | – | 2.63 ± 0.25
55 | PDDDKIVPLTEGDIQVL [RPT1] | 3.21 ± 0.097 | 3.22 ± 0.1 | 2.7 ± 0.07 | 3.01 ± 0.052
